From the supplement of paper PMC6757056
± gives the standard deviation of the averaged measurements.

B1: library; a variant is named by its letters at N, in order (parent)
chain: GCUGUCACCGAGAAACUGUGAAGUAUAUCUUAAACCUGGGCACUUAAAAGAUAUAUGGAGUUAGUAGUGCAACCUGCUCGGUCUGAUGAGUCCNNNNNNGGACGAAACAGC

What was measured:
cyclic di-GMP [1] = variants of: B1; experiment: FACS-Seq fitted mean relative fluorescence mCherry/BFP without ligand (log10 relative fluorescence); HEK293T; ligand: cyclic di-GMP (c-di-GMP-II aptamer); higher = higher reporter protein expression; conditions: ligand present: no
In short: (§1)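 Lentivirally transduced HEK293T libraries carried an mCherry reporter with the ribozyme switch and an EF1α-BFP marker. Transduced cells were enriched, then incubated with or without ligand for 48 h and sorted into 6 bins by mCherry/BFP. Genomic DNA from each bin was PCR-amplified, barcoded and sequenced on MiSeq. Fluorescence was the fitted normal mean of log10(mCherry/BFP) bin counts, scaled to five spiked-in control ribozymes.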

cyclic di-GMP [2] = variants of: B1; experiment: normalized RNA/DNA level without ligand (relative to sTRSVctl = 100) (log10 (% of sTRSVctl)); HEK293T; ligand: cyclic di-GMP (c-di-GMP-II aptamer); higher = less ribozyme self-cleavage, higher mRNA level; conditions: reporter: mCherry (pCS4076), ligand present: no
In short: (§2)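 Library plasmids carrying ribozyme switches linked to mCherry, or to eGFP in some ligand experiments, were transfected into HEK293T at 4 µg per 6-well well, with any ligand added 1 h earlier. Seventy-two hours on, total RNA was extracted with EDTA and reverse-transcribed, amplified, barcoded and sequenced. RNA level was RNA over DNA reads normalized to a spiked-in non-cleaving sequence or to the top sequences, then scaled and log-transformed. The top set was 25 sequences, the transform was ×100 and log10, and sequences needed ≥100 DNA reads.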

cyclic di-GMP [3] = variants of: B1; experiment: FACS-Seq fitted mean relative fluorescence mCherry/BFP with ligand (log10 relative fluorescence); HEK293T; ligand: cyclic di-GMP (c-di-GMP-II aptamer); ligand concentration (+) FACS-Seq: 1 mM; higher = higher reporter protein expression; conditions: ligand present: yes
In short: as §1

cyclic di-GMP [4] = variants of: B1; experiment: normalized RNA/DNA level with ligand (relative to sTRSVctl = 100) (log10 (% of sTRSVctl)); HEK293T; ligand: cyclic di-GMP (c-di-GMP-II aptamer); ligand concentration (+) RNA-Seq: 1 mM; higher = less ribozyme self-cleavage, higher mRNA level; conditions: reporter: mCherry (pCS4076), ligand present: yes
In short: as §2

Variant | FACS-Seq fitted mean (log10) (cyclic di-GMP [1]) | normalized RNA/DNA level without ligand (log10) (cyclic di-GMP [2]) | FACS-Seq fitted mean (log10) (cyclic di-GMP [3]) | normalized RNA/DNA level with ligand (log10) (cyclic di-GMP [4])
CAGUUC | -0.4497 ± 0.0028 | 1.66 ± 0.038 | -0.1164 ± 0.00072 | 1.82 ± 0.097
AUUGCC | -0.0783 ± 0.14 | 1.776 ± 0.0015 | 0.207 ± 0.0046 | 1.92 ± 0.12
ACUAAA | -0.416 ± 0.14 | 1.41 ± 0.045 | -0.0324 ± 0.021 | 1.62 ± 0.088
AUUCCA | -0.182 ± 0.1 | 1.7 ± 0.044 | -0.0711 ± 0.041 | 1.88 ± 0.14
AUUCCC | -0.55 ± 0.097 | 1.8 ± 0.045 | -0.405 ± 0.018 | 1.89 ± 0.11
AUAGUA | 0.0378 ± 0.13 | 1.5 ± 0.034 | 0.3053 ± 0.00099 | 1.65 ± 0.046
CCUCCG | 0.138 ± 0.023 | 1.769 ± 0.013 | 0.32 ± 0.035 | 1.87 ± 0.073
CCCAAA | -0.275 ± 0.06 | 1.48 ± 0.062 | 0.0473 ± 0.081 | 1.69 ± 0.1
CAAAAC | -0.495 ± 0.03 | 1.58 ± 0.055 | -0.278 ± 0.08 | 1.77 ± 0.14
CGCUCU | -0.865 ± 0.06 | 1.54 ± 0.049 | -0.64 ± 0.039 | 1.73 ± 0.1
UAAAUA | -0.362 ± 0.037 | 1.654 ± 0.0031 | -0.139 ± 0.088 | 1.78 ± 0.059
UAAAUG | 0.102 ± 0.084 | 1.62 ± 0.0043 | 0.384 ± 0.037 | 1.83 ± 0.12
UUGAUG | -0.5233 ± 0.005 | 1.547 ± 0.013 | -0.419 ± 0.053 | 1.75 ± 0.14
AGAUAA | -0.905 ± 0.032 | 1.44 ± 0.11 | -0.444 ± 0.023 | 1.65 ± 0.11
CUGAUU | -0.154 ± 0.084 | 1.505 ± 0.015 | 0.107 ± 0.18 | 1.71 ± 0.12
GUCGCU | -0.798 ± 0.048 | 1.683 ± 0.0047 | -0.654 ± 0.068 | 1.87 ± 0.065
GUCGCG | -0.376 ± 0.016 | 1.76 ± 0.018 | -0.0454 ± 0.13 | 1.82 ± 0.071
UUCGUG | -0.959 ± 0.031 | 1.71 ± 0.022 | -0.86 ± 0.094 | 1.86 ± 0.1
GUUGAC | -0.0708 ± 0.036 | 1.658 ± 0.008 | 0.228 ± 0.1 | 1.79 ± 0.099
GUUAUG | -0.452 ± 0.02 | 1.57 ± 0.081 | -0.0804 ± 0.023 | 1.78 ± 0.09
CGGCAU | -0.564 ± 0.044 | 1.49 ± 0.073 | -0.2893 ± 0.0014 | 1.64 ± 0.13
CGGCAA | -0.818 ± 0.011 | 1.28 ± 0.077 | -0.675 ± 0.04 | 1.47 ± 0.097
UUCGGA | -0.328 ± 0.044 | 1.58 ± 0.093 | 0.0771 ± 0.088 | 1.8 ± 0.081
AGUAAA | -0.319 ± 0.071 | 1.41 ± 0.038 | 0.121 ± 0.012 | 1.62 ± 0.1

Variant | FACS-Seq fitted mean (log10) (cyclic di-GMP [1]) | normalized RNA/DNA level without ligand (log10) (cyclic di-GMP [2]) | FACS-Seq fitted mean (log10) (cyclic di-GMP [3]) | normalized RNA/DNA level with ligand (log10) (cyclic di-GMP [4])
CUCUAU | -0.312 ± 0.034 | 1.61 ± 0.036 | -0.00561 ± 0.064 | 1.77 ± 0.096
AGGUGA | -0.464 ± 0.029 | 1.52 ± 0.1 | -0.245 ± 0.0095 | 1.6 ± 0.083
GCUCAU | -0.503 ± 0.042 | 1.66 ± 0.0087 | -0.178 ± 0.097 | 1.78 ± 0.1
CAGUAU | -0.4929 ± 0.0046 | 1.4 ± 0.1 | -0.197 ± 0.0062 | 1.58 ± 0.17
AUAGAA | -0.406 ± 0.06 | 1.39 ± 0.077 | -0.217 ± 0.058 | 1.61 ± 0.093
GCCGCU | -0.109 ± 0.1 | 1.72 ± 0.015 | 0.0767 ± 0.02 | 1.92 ± 0.09
CGCUAA | -0.647 ± 0.045 | 1.22 ± 0.066 | -0.386 ± 0.093 | 1.37 ± 0.059
UGAUAC | -0.0926 ± 0.067 | 1.69 ± 0.02 | 0.197 ± 0.054 | 1.8 ± 0.12
CUCUCU | -0.0993 ± 0.11 | 1.63 ± 0.06 | 0.163 ± 0.0032 | 1.79 ± 0.13
CGACAA | -0.57 ± 0.068 | 1.29 ± 0.15 | -0.273 ± 0.0065 | 1.54 ± 0.097
GCUCUU | -0.277 ± 0.12 | 1.66 ± 0.07 | -0.215 ± 0.015 | 1.82 ± 0.16
ACCAUA | -0.294 ± 0.15 | 1.51 ± 0.065 | 0.0129 ± 0.043 | 1.71 ± 0.11
AAACUG | -0.426 ± 0.0086 | 1.53 ± 0.039 | -0.194 ± 0.0073 | 1.75 ± 0.092
GCUGAA | -0.497 ± 0.029 | 1.45 ± 0.035 | -0.115 ± 0.0012 | 1.65 ± 0.097
AACCCC | -0.0752 ± 0.016 | 1.78 ± 0.046 | 0.263 ± 0.041 | 1.89 ± 0.14
AACCCU | 0.095 ± 0.16 | 1.69 ± 0.032 | 0.195 ± 0.28 | 1.84 ± 0.082
AGAAGG | -0.204 ± 0.074 | 1.5 ± 0.072 | 0.0586 ± 0.061 | 1.69 ± 0.064
GGGGAC | 0.068 ± 0.1 | 1.65 ± 0.027 | 0.307 ± 0.041 | 1.8 ± 0.17
CGCAAU | -0.449 ± 0.027 | 1.45 ± 0.087 | -0.206 ± 0.045 | 1.61 ± 0.078
UCGAUU | -0.335 ± 0.14 | 1.55 ± 0.074 | 0.0883 ± 0.079 | 1.74 ± 0.17
UUACUA | -0.111 ± 0.12 | 1.64 ± 0.029 | 0.155 ± 0.095 | 1.77 ± 0.13
GCACGA | -0.471 ± 0.043 | 1.43 ± 0.093 | -0.123 ± 0.049 | 1.65 ± 0.11
CUGCAA | -0.468 ± 0.049 | 1.36 ± 0.11 | -0.0644 ± 0.035 | 1.59 ± 0.097
GCUGCA | 0.156 ± 0.0048 | 1.77 ± 0.025 | 0.255 ± 0.059 | 1.85 ± 0.089

Variant | FACS-Seq fitted mean (log10) (cyclic di-GMP [1]) | normalized RNA/DNA level without ligand (log10) (cyclic di-GMP [2]) | FACS-Seq fitted mean (log10) (cyclic di-GMP [3]) | normalized RNA/DNA level with ligand (log10) (cyclic di-GMP [4])
GCAAUA | -0.419 ± 0.034 | 1.41 ± 0.079 | -0.0479 ± 0.074 | 1.63 ± 0.058
CAUGAA | -0.704 ± 0.022 | 1.28 ± 0.092 | -0.4855 ± 0.00097 | 1.43 ± 0.12
CGGAUU | -0.623 ± 0.0076 | 1.4 ± 0.18 | -0.3382 ± 0.0012 | 1.54 ± 0.038
UACGAA | -0.516 ± 0.06 | 1.61 ± 0.03 | -0.204 ± 0.067 | 1.76 ± 0.1
GAUAAU | -0.142 ± 0.21 | 1.59 ± 0.068 | 0.0798 ± 0.079 | 1.75 ± 0.075
GAUGCA | 0.17 ± 0.18 | 1.83 ± 0.066 | 0.358 ± 0.026 | 1.9 ± 0.12
UUACCC | -0.256 ± 0.059 | 1.798 ± 0.0066 | 0.0203 ± 0.12 | 1.88 ± 0.11
GACCUA | -0.232 ± 0.041 | 1.621 ± 0.011 | 0.101 ± 0.016 | 1.77 ± 0.11
CGGUGA | -0.266 ± 0.011 | 1.4 ± 0.13 | 0.0909 ± 0.043 | 1.64 ± 0.12
AAGCAA | -0.642 ± 0.0094 | 1.56 ± 0.039 | -0.454 ± 0.097 | 1.72 ± 0.062
CGUCCU | -0.313 ± 0.09 | 1.6 ± 0.033 | 0.0379 ± 0.021 | 1.78 ± 0.12
CACAUU | -0.323 ± 0.046 | 1.58 ± 0.025 | -0.0216 ± 0.035 | 1.7 ± 0.1
GCCGAC | -0.43 ± 0.062 | 1.48 ± 0.13 | -0.145 ± 0.015 | 1.67 ± 0.089
AGUGAA | -0.389 ± 0.095 | 1.36 ± 0.097 | 0.0166 ± 0.093 | 1.54 ± 0.096
CCGAUG | -0.912 ± 0.22 | 1.09 ± 0.038 | -0.634 ± 0.095 | 1.32 ± 0.16
UUUCGA | 0.0382 ± 0.21 | 1.82 ± 0.041 | 0.251 ± 0.061 | 1.89 ± 0.079
UGUGAC | 0.123 ± 0.24 | 1.644 ± 0.015 | 0.27 ± 0.01 | 1.79 ± 0.082
CACGGA | -0.398 ± 0.042 | 1.48 ± 0.092 | 0.0123 ± 0.14 | 1.72 ± 0.06
UUAUGG | -0.0165 ± 0.12 | 1.74 ± 0.053 | 0.213 ± 0.035 | 1.85 ± 0.13
CAGAUA | -0.713 ± 0.024 | 1.23 ± 0.053 | -0.483 ± 0.0048 | 1.43 ± 0.065
GCUGGA | -0.599 ± 0.036 | 1.49 ± 0.085 | -0.196 ± 0.038 | 1.71 ± 0.099
CGGAGC | 0.169 ± 0.11 | 1.61 ± 0.052 | 0.426 ± 0.022 | 1.79 ± 0.065
AGGUAU | -0.276 ± 0.0093 | 1.57 ± 0.046 | 0.0998 ± 0.21 | 1.76 ± 0.066
